PMC4006704

How the values were obtained:
[1] = target: GST-Med19 (Drosophila melanogaster) (UniProt Q9VVL6); experiment: pull-down; 35S-labelled Hox / homeodomain peptides on immobilised GST-Med19 (Figures 1E, S2)
[2] = target: multiple GST-Hox proteins (Drosophila melanogaster); experiment: pull-down; 35S-labelled Med19 (full length or deleted versions) probing immobilised GST-Hox fusions or GST-HDAntp; standard conditions, essentially as in ref. 68 (Figures 1A, 5A)

percent of input bound [1]	percent of input bound [2]	Molecule
7 % of input		HD region of Drosophila Ubx, with its hexapeptide (HX), linker region and HD (wild-type) (domain or fragment)
5 % of input		HD region of crustacean Artemia Ubx (linker-shortened C-terminal region) (domain or fragment)
	> 5 % of input	35S-labelled full-length Med19 (Mediator complex subunit 19) (natural protein, 35S-labelled) MMSNYGNMMDSPKSSPHGGGRSPVVARQDSSGTLKTTISLGKTPTIIHTGPFYSMKEPPAKAELTGDKDLMTEYGLHHTLTKFKEKKFKESLASFLQNIPGINDLITHPVENSTLRSVIEKPPIGGKELLPLTPVQLAGFRLHPGPLPEQYRTTYVTPARKHKNKHKKQKHKDGVTTGQESTLLDSAGLETYEKKHKKQKRHEDDKERKKRKKEKKRKKKNQSPEPGVGLLPGGASLGGAAGVMGATSLGSLGGGPGGPGLSSLSASMGPGVVGNMNSFSSSMQMQQQQQMPMQQQQMSSGGLLGSVLGTSGGPGGGGGGGGGGGGGVGGSLLMSQF
